Source: the supplement of paper PMC9732359
± gives the uncertainty stated by the source.

Assay: protein stability index of a GFP-peptide fusion (yeast GPS) (PSI 1-4); higher = more stable; sorted into four equal gates, so the index is relative within each strain
Conditions: ubr1∆
Procedure, shortened: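 The protein stability index combines read frequencies across sorting gates, each weighted by its gate number and then summed. To obtain those frequencies, a pooled yeast library of GFP fusions to tiled 17-residue yeast protein peptides, on a plasmid also expressing Cherry, was grown to mid-log phase in leucine-free medium. The cells were sorted into four equal gates by GFP/Cherry ratio before plasmid amplification by PCR and Illumina sequencing.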

| Sequence | protein stability index |
| --- | --- |
| LESTIAETQGSKVVIDS [IRR1] | 2.98 ± 0.12 |
| LESTKAETDYVDPKRLA [DSN1] | 3.26 ± 0.075 |
| LESYLIVHHPYQSLKQI [SSN8] | 2.38 ± 0.044 |
| LETDGVNLSEVMTVPGI [RPO21] | 3.34 ± 0.14 |
| LEYMNTARINNRRLFKK [RRI2] | 2.5 ± 0.075 |
| LEYYAMLSKTKVYYFQG [RPL30] | 2.89 ± 0.13 |
| LFAGYTDNVIRVWQVMT [ASC1] | 2.06 ± 0.066 |
| LFGQSQQPQTNTAPGLG [YGR119C/NUP57] | 2.97 ± 0.092 |
| LFNKPPSTNAQNVNVPS [YOR098C/NUP1] | 3.12 ± 0.04 |
| LFPVAAQDSLTVTIASS [RPB8] | 1.61 ± 0.041 |
| LFQELSKVVDDMPSLRL [GRR1] | 2.31 ± 0.085 |
| LFQRQKLHEFYLLISKE [IRR1] | 2.87 ± 0.12 |
| LFRIFSMSEEFKYVSVR [BRR2] | 3.29 ± 0.12 |
| LFSEKTIRYLMQKQHEM [SNF6] | 2.66 ± 0.034 |
| LGAIEQILIFAADTSIV [YJL039C/NUP192] | 2.56 ± 0.099 |
| LGAVAGLIPYPHHNQSP [RET1] | 2.94 ± 0.065 |
| LGHTKAALGEVASMELK [SIR2] | 2.98 ± 0.12 |
| LGIEAARYSIIREINYT [RPO31] | 1.53 ± 0.12 |
| LGKQSSSLLSRLISSKM [FAS2] | 2.7 ± 0.048 |
| LGKRINSAVNNAISNTQ [SRP54] | 3.12 ± 0.097 |
| LGKRSILAAAHRDAYSG [PRE2] | 2.85 ± 0.083 |
| LGKYEFSKILPAALDGL [ESC2] | 2 ± 0.086 |
| LGLCCLLDVKLAIDNMY [YCG1] | 1.88 ± 0.044 |
| LGLLLPIAASTDLPIET [RPN1] | 2.17 ± 0.055 |
| LGRLVKAGKITTIEEIF [RPS2] | 2.25 ± 0.12 |
| LGRTGSRGGVTQVRVEF [RPS28A] | 3.19 ± 0.044 |

| Sequence | protein stability index |
| --- | --- |
| LGTLVNQKTSAVAALTE [RPL8A] | 2.25 ± 0.11 |
| LGTVQREIESLIAEETN [SMC3] | 2.91 ± 0.15 |
| LGVIHKGNLLEGKKVMA [RPN2] | 1.22 ± 0.057 |
| LHKIFYKVLKNNGLPEC [YCG1] | 2.13 ± 0.04 |
| LHKLELKAKNQEEEGEL [DSN1] | 3.25 ± 0.1 |
| LHKNFESENFKIIALQP [RGR1] | 2.58 ± 0.073 |
| LHKRQQFSESTHNDIDS [YJL039C/NUP192] | 3.03 ± 0.05 |
| LHYTPIEDLWQFLYEKH [RPC82] | 2.4 ± 0.16 |
| LIELLEKLDVSRSSVCV [YCG1] | 1.88 ± 0.065 |
| LIELSGGQRSLIALSLI [SMC2] | 2.27 ± 0.035 |
| LIETVRQMKDVNAPLPT [RPN2] | 3.04 ± 0.036 |
| LIGCIDEAKDFIVSGTA [PUP3] | 3.01 ± 0.044 |
| LIITRKAFKNNSSKYYI [SMC4] | 2.69 ± 0.11 |
| LILRDFLNNGEVDSASD [RPN3] | 3.2 ± 0.29 |
| LILSGDTTANNGKVQYF [YJL039C/NUP192] | 2.95 ± 0.064 |
| LILTSHNMKAYYKKFLI [BRR2] | 2.54 ± 0.14 |
| LINLKISPLMKSQYNMV [SRB8] | 1.53 ± 0.12 |
| LIQLQNIFKAEMDSVSK [CSN9] | 2.81 ± 0.13 |
| LIRPSSKVIIKFLQVMQ [RPS22A] | 2.25 ± 0.034 |
| LISIISSVIQNYDIITA [YML103C/NUP188] | 1.3 ± 0.2 |
| LISRLCPNSTGAELRSV [RPT1] | 1.73 ± 0.042 |
| LIVIDVVEGVTFVVEQL [SNU114] | 2.92 ± 0.04 |
| LIYGISDEERDDEDDEH [AAR2] | 3.06 ± 0.099 |
| LKFFLVDENETVLESLG [LIN1] | 3.04 ± 0.15 |
| LKFLYLLDAYSHIESDS [MED1] | 2.64 ± 0.057 |
| LKFMAASEVATHSKLFA [PRP8] | 2.7 ± 0.073 |

| Sequence | protein stability index |
| --- | --- |
| LKGLLQELKADSPFSLI [SRP72] | 1.45 ± 0.046 |
| LKKIASIPNLFPTDLEI [SWI1] | 2.64 ± 0.036 |
| LKKLEKFMELERKTLER [SWI3] | 2.66 ± 0.058 |
| LKKLKAMNDACYEKVLE [BRR2] | 3.05 ± 0.058 |
| LKLGLVEYLDVNEENDS [RET1] | 3.1 ± 0.075 |
| LKLSQAFGSSATDISGE [YJR042W/NUP85] | 2.14 ± 0.048 |
| LKNLRKKLNFKLCQAFM [YJR042W/NUP85] | 2.98 ± 0.15 |
| LKNVNKRAFENFKKFNE [SMC3] | 1.88 ± 0.09 |
| LKQEGAANKTVVVVGTV [RPL18A] | 3.46 ± 0.12 |
| LKRYCCRRMILTHVDLI [RPB10] | 1.57 ± 0.12 |
| LKSSLADVLSILAMTYS [RPN1] | 1.96 ± 0.059 |
| LKSTKHSISEAENMLEE [SMC4] | 3.11 ± 0.05 |
| LKTFHFAGVASMNVTLG [RPO31] | 1.98 ± 0.055 |
| LKVLSGDEGYNEDMVRR [SNF12] | 3.56 ± 0.15 |
| LKVTKKHGAKKVAKRTK [RPL27A] | 3.18 ± 0.13 |
| LKYSKRRSLKKQGRIKN [CSN12] | 3.25 ± 0.036 |
| LLAQLNGTVNNNSALSN [RPT3] | 2.34 ± 0.075 |
| LLATKQHDSSANEDEEE [CSN12] | 2.87 ± 0.1 |
| LLCDKAQKNTQSYGGRP [PRE5] | 3.26 ± 0.077 |
| LLDKYGKTGLSNMILGS [YML103C/NUP188] | 2.12 ± 0.058 |
| LLDRILPKLKATGHRVL [SNF2] | 2.63 ± 0.088 |
| LLERTREIHNEAESQLR [FAS2] | 2.54 ± 0.08 |
| LLIDQFSPVISQSLTSI [SWI1] | 1.66 ± 0.064 |
| LLIIRSLKNTDALLNST [YJL039C/NUP192] | 2.45 ± 0.15 |
| LLKDDTYQLCVRLRSNV [RPN3] | 1.25 ± 0.2 |
| LLKKELLTIEPKLKEAT [SMC2] | 3.21 ± 0.039 |

| Sequence | protein stability index |
| --- | --- |
| LLKLTKVFIRESLSLKN [YML103C/NUP188] | 1.83 ± 0.17 |
| LLLSRVRADDLSTRFNI [RRP43] | 3 ± 0.049 |
| LLMRLEGNYRNLNNLKQ [RPB8] | 3.37 ± 0.082 |
| LLNEWSHNVDELLEHIE [RPN5] | 1.58 ± 0.061 |
| LLPTNNGQPLNQNFSLT [GRR1] | 3.02 ± 0.047 |
| LLRALKTNEESAKMILL [PRP8] | 2.92 ± 0.037 |
| LLRLASKSTSMKLSMPP [POP1] | 2.81 ± 0.049 |
| LLRQKIEQCKHPLHELI [ISW2] | 1.48 ± 0.12 |
| LLRSVLVLLELVSSGDR [YML103C/NUP188] | 2.28 ± 0.15 |
| LLSDPTITIKSYHLWPS [PRP8] | 2.51 ± 0.077 |
| LLTLTNAANVPVENIWA [RPP1A] | 2.55 ± 0.094 |
| LLTNDESAFENLMGNRN [SNF12] | 3.14 ± 0.078 |
| LLTNFHGMDFTTDKLRS [RPS1A] | 2.81 ± 0.077 |
| LLWLVLIHPENFTCNRK [SWI1] | 2.96 ± 0.074 |
| LMTFNAETKSYDSRGVG [YLR335W/NUP2] | 2.71 ± 0.048 |
| LMVFNDDTKNQDSMSKG [YGR119C/NUP57] | 3.05 ± 0.071 |
| LNAELESKLIPQENDLE [SMC3] | 3.15 ± 0.057 |
| LNATKISPSAPSKDSFT [YAR002W/NUP60] | 3 ± 0.043 |
| LNDEYNYPQLTEDILKE [YCS4] | 3.49 ± 0.085 |
| LNDLNHLLVQLQKNDVY [REC8] | 2.17 ± 0.042 |
| LNDRFQTLSSHLEALQP [PGD1] | 2.54 ± 0.032 |
| LNDRQEEISRLQRDLIQ [YIL149C/MLP2] | 3.05 ± 0.12 |
| LNEAPFPEENIIDAKTR [MCD1] | 3.27 ± 0.051 |
| LNELKAIKDKLEQDLHF [YIL149C/MLP2] | 3.24 ± 0.063 |
